T1: Dlg SH3-GK ΔHook (residues 598-975 without 679-766), as it stands in the fusion (Drosophila, UniProt P31007-5 598-975, Δ679-766)
T1 construct: Existed only joined to m11 on one chain; written apart for the pair seen in the crystal structure; also called Dlg GK^dom and its adjacent SH3 domain; GK^dom; source: E. coli BL21(DE3), purified (NiNTA, anion exchange, size exclusion), as part of the fusion m8
T1 sequence (looked up): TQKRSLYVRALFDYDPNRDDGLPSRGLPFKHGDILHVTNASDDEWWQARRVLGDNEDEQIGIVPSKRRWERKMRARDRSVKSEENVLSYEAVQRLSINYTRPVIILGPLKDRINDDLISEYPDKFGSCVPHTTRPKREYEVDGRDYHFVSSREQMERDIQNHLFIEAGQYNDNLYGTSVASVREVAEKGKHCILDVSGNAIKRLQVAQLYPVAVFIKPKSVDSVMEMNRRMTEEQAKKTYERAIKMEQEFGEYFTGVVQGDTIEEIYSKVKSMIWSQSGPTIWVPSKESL


Key:
[1] = molecular target: Pins Linker peptide (residues 427-445), pSer436, TMR-labelled (Drosophila) (UniProt Q9VB22); assay: fluorescence polarisation; steady state anisotropy of 0.5 µM TMR-labelled Pins peptide (427-445) with increasing concentrations of Dlg constructs; 20 mM Tris pH 8, 100 mM NaCl, 1 mM DTT; nonlinear regression
[2] = molecular target: Pins Linker peptide (residues 427-445), unphosphorylated, TMR-labelled (Drosophila) (UniProt Q9VB22); assay: as above
[3] = molecular target: Pins Linker peptide (residues 427-445), pSer436, TMR-labelled (UniProt Q9VB22); assay: fluorescence polarisation; conditions: read from the fitted curve at 20 µM Dlg-GK; parent: est. 0.11; read off a plot
[4] = molecular target: T1, Dlg SH3-GK ΔHook (residues 598-975 …); assay: crystal structure; Dlg SH3-GK ΔHook and Pins Linker S436D joined on one chain; vapor diffusion, 2 M NaCl, 0.1 M NaOAc pH 4.6; data to 1.6 Å; one molecule in the asymmetric unit; conditions: both partners purified

Kd [1]	response [3]	Molecule	further results
	0.017	Dlg GK domain (isolated GK^dom) Y831A	
300 nM		Dlg SH3-GK module (domain or fragment)	
300 nM		Dlg SH3GK fused to Pins Linker without the phosphomimetic (from UniProt P31007-5 598-975; Q9VB22 411-460)	
14000 nM		ΔHook/Pins^S436D fusion protein (Dlg 598-975 without 679-766, fused to Pins 411-460 S436D) (from UniProt P31007-5 598-975; Q9VB22 411-460)	

The remaining lines, values behind:

Molecule	Kd [1]	response [3]	further results
Dlg GK domain (isolated GK^dom) (domain or fragment)	800 nM		Kd [2]: > 200000 nM
Dlg GK domain (isolated GK^dom) R822A		0.083	
Dlg GK domain (isolated GK^dom) Y824A		0.11	
Dlg GK domain (isolated GK^dom) Y855A		0.08	
DHSASGNQSDGSENSQGRMVRVRRQDMEQLDLIKITPDGKRMQEEKLRAQ (domain or fragment, Drosophila, UniProt Q9VB22 411-460, looked up, Partner of Inscuteable (Pins), Linker, residues 411-460, phosphomimetic S436D; Existed only joined to m10 on one chain; written apart for the pair seen in the crystal structure; also called Pins^LINKER S436D; Pins^S436D; source: E. coli BL21(DE3), purified (NiNTA, anion exchange, size exclusion), as part of the fusion m8) [Pins Linker (residues 411-460) S436D, as it stands in the fusion]			binding result [4]: binds

From article PMC3335814, “Structure of an Enzyme-Derived Phosphoprotein Recognition Domain” (PLoS ONE, 2012)
